Measurements from the Human Domainome abundance scans (Beltran et al. 2025).
± gives the uncertainty stated by the source.

B1: Homeobox protein cut-like 1, residues 941 to 1008; numbered along this chain, P39880 (parent)
chain: QEVDTIELTRQVKEKLAKNGICQRIFGEKVLGLSQGSVSDMLSRPKPWSKLTQKGREPFIRMQLWLNG

Variants of: B1
Test: abundance fitness (aPCA) (normalised: wild type 0, dead -1); higher = more abundant; growth selection in yeast, the domain comes from the species named
Conditions: Homo sapiens

| Variant | abundance fitness |
| --- | --- |
| N19G | -0.087 ± 0.052 |
| N19K | -0.019 ± 0.08 |
| I21K | -0.381 ± 0.09 |
| I21L | -0.08 ± 0.046 |
| I21R | -0.402 ± 0.044 |
| I21Q | -0.184 ± 0.072 |
| F59R | -0.7 ± 0.071 |
| E2K | -0.074 ± 0.029 |
| V12M | -0.084 ± 0.095 |
| V12L | -0.359 ± 0.05 |
| V12R | -0.131 ± 0.052 |
| Q53K | 0.076 ± 0.092 |
| Q53F | -0.217 ± 0.086 |
| Q53N | -0.045 ± 0.15 |
| Q53V | -0.095 ± 0.05 |
| G55H | -0.132 ± 0.12 |
| G55T | -0.162 ± 0.063 |
| G55C | -0.17 ± 0.091 |
| L42A | -0.324 ± 0.052 |
| L42H | -0.184 ± 0.084 |
| L42E | -0.281 ± 0.067 |
| L42D | -0.393 ± 0.073 |
| L42V | -0.264 ± 0.046 |
| E28Q | -0.127 ± 0.083 |

| Variant | abundance fitness |
| --- | --- |
| E28W | -0.104 ± 0.063 |
| E28L | -0.113 ± 0.045 |
| W65H | -0.864 ± 0.28 |
| R24D | -0.074 ± 0.11 |
| R24N | 0.005 ± 0.14 |
| R24L | -0.253 ± 0.055 |
| R24M | -0.315 ± 0.097 |
| R24F | -0.362 ± 0.097 |
| W48Y | -0.78 ± 0.12 |
| W48F | -0.311 ± 0.078 |
| W48A | -0.904 ± 0.089 |
| D4S | -0.261 ± 0.05 |
| D4A | -0.376 ± 0.05 |
| D4T | -0.25 ± 0.057 |
| K13M | -0.278 ± 0.073 |
| K13T | -0.146 ± 0.063 |
| L66K | -0.63 ± 0.084 |
| L66M | -0.244 ± 0.073 |
| V30L | -0.416 ± 0.49 |
| R10K | 0.074 ± 0.073 |
| R10C | -0.22 ± 0.083 |
| R10E | -0.056 ± 0.088 |
| S39Y | -0.094 ± 0.11 |
| T9W | -0.197 ± 0.074 |

| Variant | abundance fitness |
| --- | --- |
| T9D | -0.168 ± 0.14 |
| T9H | -0.142 ± 0.12 |
| T9E | -0.191 ± 0.089 |
| G32H | -0.096 ± 0.096 |
| G32C | -0.266 ± 0.076 |
| G32Y | -0.415 ± 0.096 |
| L8V | 0.038 ± 0.064 |
| L8P | -0.007 ± 0.062 |
| L8I | 0.131 ± 0.096 |
| P47I | -0.286 ± 0.24 |
| P47L | -0.029 ± 0.05 |
| P47N | -0.371 ± 0.11 |
| Q23S | -0.029 ± 0.066 |
| Q23L | -0.038 ± 0.051 |
| Q23K | -0.245 ± 0.093 |
| I60N | -0.051 ± 0.094 |
| I60R | 0.071 ± 0.058 |
| I60E | -0.152 ± 0.086 |
| R56F | -0.659 ± 0.17 |
| R56H | -0.676 ± 0.15 |
| M41K | -0.089 ± 0.072 |
| M41L | 0.027 ± 0.048 |
| M41Q | -0.171 ± 0.067 |
| M41T | -0.107 ± 0.066 |

| Variant | abundance fitness |
| --- | --- |
| I6C | -0.091 ± 0.08 |
| I6F | -0.081 ± 0.073 |
| I6M | 0.06 ± 0.059 |
| S43K | -0.028 ± 0.088 |
| S43T | -0.01 ± 0.096 |
| S43C | -0.153 ± 0.064 |
| S34Q | -0.125 ± 0.096 |
| C22V | -0.196 ± 0.052 |
| S37C | 0.066 ± 0.065 |
| G27Q | -0.314 ± 0.087 |
| G27E | -0.131 ± 0.068 |
| G27F | -0.086 ± 0.1 |
| L64P | -0.562 ± 0.074 |
| L64M | -0.049 ± 0.067 |
| L64V | -0.135 ± 0.049 |
| L64E | 0.185 ± 0.057 |
| L64A | 0.087 ± 0.06 |
| G20T | -0.087 ± 0.064 |
| G20M | -0.231 ± 0.081 |
| V3W | -0.528 ± 0.085 |
| V3R | -0.051 ± 0.061 |
| V3Q | -0.032 ± 0.076 |
| V3P | -0.111 ± 0.07 |
| V3D | -0.174 ± 0.094 |

| Variant | abundance fitness |
| --- | --- |
| V3M | -0.045 ± 0.074 |
| E57M | -0.203 ± 0.071 |
| E57V | -0.192 ± 0.073 |
| E57T | -0.15 ± 0.07 |
| E57Q | -0.147 ± 0.082 |
| S49H | 0.025 ± 0.12 |
| S49T | -0.131 ± 0.06 |
| L51G | -1.04 ± 0.068 |
| L51A | -0.723 ± 0.078 |
| L51Y | -0.474 ± 0.099 |
| V38Q | -0.273 ± 0.086 |
| V38T | 0.164 ± 0.08 |
| V38N | -0.331 ± 0.088 |
| V38A | -0.215 ± 0.075 |
| V38I | -0.022 ± 0.12 |
| F26I | -0.45 ± 0.11 |
| F26D | -1.05 ± 0.22 |
| F26S | -0.704 ± 0.071 |
| N67R | -0.016 ± 0.06 |
| N67S | -0.031 ± 0.061 |
| T5D | -0.412 ± 0.092 |
| T5R | -0.157 ± 0.046 |
| T5N | -0.223 ± 0.13 |
| T5A | -0.253 ± 0.048 |

| Variant | abundance fitness |
| --- | --- |
| T5G | -0.329 ± 0.05 |
| L31T | -0.393 ± 0.063 |
| L31D | -0.425 ± 0.086 |
| L31Y | -0.351 ± 0.1 |
| I25C | -0.283 ± 0.1 |
| P58Q | -0.036 ± 0.074 |
| P58I | 0.117 ± 0.083 |
| K54M | -0.263 ± 0.095 |
| K54P | -0.439 ± 0.077 |
| K54N | -0.319 ± 0.11 |
| Q35L | -0.003 ± 0.046 |
| Q35M | -0.033 ± 0.062 |
| Q35A | 0.039 ± 0.06 |
| Q35N | -0.353 ± 0.14 |
| K50G | -0.194 ± 0.06 |
| K50T | -0.059 ± 0.074 |
| K50C | -0.07 ± 0.069 |
| K50A | -0.098 ± 0.058 |
| K50Y | -0.138 ± 0.092 |
| K50M | -0.012 ± 0.07 |
| K50E | 0.022 ± 0.064 |
| R61L | -0.174 ± 0.045 |
| R61G | -0.582 ± 0.089 |
| K46E | -0.013 ± 0.055 |

| Variant | abundance fitness |
| --- | --- |
| K46L | -0.07 ± 0.05 |
| K46S | 0.009 ± 0.058 |
| K46I | -0.184 ± 0.11 |
| K46N | -0.461 ± 0.089 |
| Q63M | -0.124 ± 0.069 |
| Q63T | -0.184 ± 0.065 |
| Q63H | 0.041 ± 0.1 |
| Q1G | 0.06 ± 0.086 |
| Q1Y | -0.34 ± 0.13 |
| Q1M | 0.09 ± 0.081 |
| K18D | -0.397 ± 0.11 |
| K18A | -0.083 ± 0.053 |
| K18Q | -0.134 ± 0.082 |
| Q11N | -0.234 ± 0.095 |
| Q11K | 0.132 ± 0.077 |
| Q11W | -0.448 ± 0.058 |
| A17D | 0.014 ± 0.098 |
| R44D | 0.12 ± 0.12 |
| R44P | -0.314 ± 0.072 |
| R44G | -0.118 ± 0.044 |
| E14S | -0.143 ± 0.062 |
| E14R | -0.054 ± 0.045 |
| E14G | -0.156 ± 0.064 |
